The values that follow come from article PMC5790014, “Type IX secretion system PorM and gliding machinery GldM form arches spanning the periplasmic space” (Nature Communications, 2018).

Data set [1] deals with the molecule itself. In words: crystal structure; PorMp224; 0.02 M sodium acetate pH 4.8-5.8, 0.2 M zinc acetate, 15-25% (w/v) PEG3350; 2.85 Å.
Data set [2] deals with the molecule itself. Briefly: crystal structure; GldMp; sitting-drop vapor diffusion at 293K; 0.1 M Hepes pH 7-8, 26-46% (w/v) PEG 600; 2 Å.
Data set [3] has as its target T1, PorMp315 (PorM periplasmic fragment, domains D3 and D4 in the crystal) (Porphyromonas gingivalis, UniProt B2RLE8).
T1 construct: PorM, Porphyromonas gingivalis, GI 188595218; cloned as residues 224-516, domain D2 was cleaved by a protease during crystallization, the structure spans residues 315-516; Construct cloned as 224-516 (pLIC03); the crystallised species is 315-516
Briefly: crystal structure; PorMp315/nb130, 1/1 complex at 10 mg/mL; 0.2 M ammonium citrate tribasic pH 7.0, 20% (w/v) PEG3350; 2.1 Å. As to conditions: both partners purified.

In data set [4] the target is T2, PorMpNt (N-terminal domain D1 of the PorM periplasmic domain) (Porphyromonas gingivalis (sequence …)).
T2 construct: PorM, Porphyromonas gingivalis, GI 188595218, N-terminal domain D1; residues 30-212 by the results, residues 44-217 by the methods; the first helix (residues 30-69) is missing in the crystal, probably cleaved during crystallization; also called PorMNt
Briefly: crystal structure; PorMNt/nb01, 1/1 complex at 10 mg/mL; 0.1 M Hepes pH 7.5, 0.2 M NaCl, 25% (w/v) PEG3350; 2.4 Å. As to conditions: both partners purified.

Data set [5] concerns the molecule itself. Briefly: crystal structure; PorMp315/nb130, 1/1 complex at 10 mg/mL; 0.2 M ammonium citrate tribasic pH 7.0, 20% (w/v) PEG3350; 2.1 Å.

For orientation: stoichiometry N means the number of molecules, sites or subunits per partner or assembly.

B1: PorMp224 (PorM periplasmic fragment, residues 224-516) (domain or fragment)
chain: RVNSITAQVIPQSQIVMSGDTYKANIVLSSVDTTQRPDVFVNGKLLSPENMGLFTATAGAPGTYPVKGYIEMMGNDGVKIRRDFESEYFVTEPMASVAPTMMNVLYAGIDNPINIAVPGVAQQNVSATINNGTLTRRGNLWIARPTKVGSEAIISVTAQSGGRTIQMAKTTLRVRALPDPLPYIEYKDVQGNTKRFKGGRLGKREILAAGGIKAALDDDLLEVNYTVVKFQLVFYDSMGNSIPEVSDGASFSERQKRQIQNLGKGKRFYVTEVIARGPDGIERKIPAIEVIVN
notes: PorM, Porphyromonas gingivalis, GI 188595218, tryptic fragment of the periplasmic domain, residues 224-516 (domains D2-D4); source: trypsin cleavage of PorMp (made in Rosetta E. coli cells), fragment purified
Take B1: in data set [1], the binding result was “binds”.

B2: GldM periplasmic domain (GldMp) (domain or fragment, Flavobacterium johnsoniae, UniProt Q5EGM3 36-513, looked up)
chain: FGLMNEKFEAANTSSVTTNESLLTSLDQKAAEAKGEFAKAAETAHKVQAASKEFYDYIGTLKTQAVKGFEVDKETGKMPYEAMDRGDNIDDWFTGDGYTKKGNEIIAKIEKYKSDIKAALGTDKKYAGIISEVEKKFDVSDVKNKEGIKEKYLAYHFKGFPAIASAAKLSAWQNDVKKTEADVYNSALGKAAVAAASYSNYQAIVVLDKNAYFQGEKVTGKVVLGRYDENTKPTSFQGPGQIVNGQAVISLTAGGVGEQDINGQFTFLEDGKNIPLKFSGKYVVVPRPNSATISADKMNVVYRGVVNPISVSFAGVDANKIVASAPGLSSAGKPGKYNMSPGQGTEATISVTGTLPNGDKVTDKKTFRIKGIPGPTGTIRGEMGVVKGPKSNLEIATIGAKLLDFDFEVGLDVVGFNMKIAGQPTVVVTGNKMNAQCKSVLARAGKGDQVTISEIKTKLVGAGSYLLPRTAPVIYEIQ
notes: GldM, Flavobacterium johnsoniae (ATCC17061), GI 58531935, periplasmic domain, residues 36-513; Cloned into pLIC03 (a pET28a+ derivative); A SeMet derivative was used for phasing
For B2, the “stoichiometry N” value in data set [2] is 2.

B3: nanobody nb130 (VHH)
VHH: QVQLVESGGGLVQAGGSLRLSCAASGRTFSSYVMGWFRQAPGKEREFVTAISWSGGSIHYADSVKGRFTISRDNAKNTVYLQMNSLKPEDTAVYTCVAGFAGYGSFTSRSARDSDKYDYWGQGTKVTVSS
notes: llama nanobody raised against PorMp; source: E. coli WK6, periplasmic fraction, purified (Ni-NTA, Superdex 75)
Regarding B3, in data set [3], the binding result is “binds”.

B4: nanobody nb01 (VHH)
VHH: DVQLVESGGGLVQAGGSLRVSCAASGRTFSSYSMGWFRQAPGKEREFVAAISRSDNSTYYADSVKGRFTISRDSAKNTVYLQMNSLKPEDTAVYYCAATPYGSRYYLRELREYDYWGQGTQVTVSS
notes: as for B3
With B4, the binding result in data set [4] is “binds”.

B5: PorMp315 (PorM periplasmic fragment, domains D3 and D4 in the crystal) (domain or fragment, Porphyromonas gingivalis, UniProt B2RLE8 315-516, looked up)
chain: EPMASVAPTMMNVLYAGIDNPINIAVPGVAQQNVSATINNGTLTRRGNLWIARPTKVGSEAIISVTAQSGGRTIQMAKTTLRVRALPDPLPYIEYKDVQGNTKRFKGGRLGKREILAAGGIKAALDDDLLEVNYTVVKFQLVFYDSMGNSIPEVSDGASFSERQKRQIQNLGKGKRFYVTEVIARGPDGIERKIPAIEVIVN
notes: PorM, Porphyromonas gingivalis, GI 188595218; cloned as residues 224-516, domain D2 was cleaved by a protease during crystallization, the structure spans residues 315-516; Construct cloned as 224-516 (pLIC03); the crystallised species is 315-516
As for B5, the binding result in data set [5] is on record as “binds”.
